Laboratory results from patent US9850293B2, “Targeting trastuzumab-resistant HER2+ breast cancer with a HER3-targeting nanoparticle” (priority 2014, dated 2017).
Entries after “also recorded” stand apart in the source; their conditions may differ.

What was measured:
[1] = HerDox stability under storage conditions; assay type: physicochemical; conditions: up to 12 days
Method: FIG. 6 (A) illustrates conjugate stability under different storage conditions, or in serum. HerDox was incubated up to 12 days at 4° C., Room Temperature, or 37° C. Samples were filtered through ultrafiltration spin columns every other day.
The inventors tested the stability of HerDox over 12 days under different storage temperatures: 40° C., room temperature, or 37° C. […] The inventors also examined HerDox stability in serum-containing media at 37° C. […] Dox retention in the conjugate was also assessed by eluting the conjugate from the beads at each time point.

[2] = HerDox stability in cell culture media (agarose gel); assay type: in vitro ADME; conditions: serum-containing media, 37° C.
Method: FIG. 9 (C) illustrates that there is stability in cell culture. Aliquots of culture media containing HerDox (after incubation for the indicated times at 37° C.) were electrophoresed on a 2% agarose gel. HerDox incubated at 37° C. in HEPES-buffered saline, lacking serum, was processed in parallel. Dox fluorescence was visualized by UV excitation. Free Dox (Dox alone) is not retained in the gel whereas Dox incorporated in HerDox is. To align fluorescent bands with HerPBK10 and assess loading per lane, the gel was stained with Coomassie blue, which also identified serum protein from culture media samples.
By three days, HerDox reduced HER2+ cell numbers by over 75% whereas HER2− cell survival was unaffected (FIG. 7). […] These findings emphasize the importance of targeting by showing that the untargeted drug affects nontarget (i.e. HER2−) cells. […] To test receptor targeting, the inventors used free heregulin ligand (Her or eHRG) as a competitive inhibitor. […] As a final in vitro challenge, the inventors tested whether HerDox induces toxicity specifically to HER2+ cells in a mixed culture of HER2+ and HER2− breast cancer cells. To do this, the inventors produced a HER2− cell line tagged with green fluorescent protein (GFP) for cell identification in the mixed culture (FIG. 9-A). […]

JIMT-1 tumors = experiment: Trastuzumab-resistant tumor growth in vivo; design: species or system mouse; conditions: 0.004 mg Dox/kg/injection, twice-weekly IV
Method: (§1) Tumor volumes were measured by calipers. Day 0 corresponds to first day of treatment. N=10 tumors per treatment.
as §1
The efficacy of HerDox was also examined on a cell line with pre-existing resistance.
The contribution of HER3 to targeted toxicity was evaluated by assessing whether pre-adsorbing HerDox with a peptide comprising the ligand-binding domain of HER3 blocked cytotoxicity.

U251 human glioma cells = experiment: Toxicity to glioma cells (cell count); assay type: cell-based; conditions: four days
Method: Significant differences were determined by 2-tailed tests.
Cells were trypsinized and counted on the last day.

BT474 parental cells = experiment: Tumor cell killing in culture; assay type: cell-based, human
Method: FIG. 21 depicts graph that show the results of the administration of HerDox on various cells. […] N=3. *=p<0.05 compared to parental. […] N=3.
N=3. *, p<0.05 compared to parental. […] N=3. […] Parental and resistant cell lines were treated with HerDox−/+HER3 blocking peptide (ErbB3 human; Prospec), and tested for cell survival 48 hours later. […] Treatments were compared to mock (saline)-treatment. […] N=3. *, p<0.05 compared to parental. […] N=3.
Parental cell lines were pre-treated with 0.5 mg/mL Tz for 24 hours before testing these cells for surface HER3 levels. […] Parental cell lines were pre-treated with 0.5 mg/mL Tz for 24 hours before testing these cells for HerPBK10 binding. […] SKBR3 Parental cells were treated with Tz at indicated concentrations (see upper X-axes) 4 and 24 hours before HerDox treatment and assayed for survival at 48-72 h after treatment. N=3. […] SK-474 Parental cells were treated with Tz at indicated concentrations (see upper X-axes) 4 and 24 hours before HerDox treatment and assayed for survival at 48-72 h after treatment. N=3. […] MDA-MB-435 non-resistant cells were treated with Tz at indicated concentrations (see upper X-axes) 4 and 24 hours before HerDox treatment and assayed for survival at 48-72 h after treatment. […] N=3. […] Tz-resistant cells were treated with Tz at indicated concentrations (see upper X-axes) 4 and 24 hours before HerDox treatment and assayed for survival at 48-72 h after treatment. N=3.
N=3. *, p<0.05 compared to parental. […] N=3. […] N=3. […] Tumor volumes were measured by calipers. […] Tumor volumes were measured by calipers. […]

MDA-MB-231 (HER2−) = experiment: Targeted toxicity, cell survival by MTT assay; assay type: cell-based, human; conditions: 0.5 μM with respect to Dox; HerPBK10 0.1 μM; day 3
Method: FIG. 7 illustrates targeted toxicity. […] Cell titer was determined by metabolic (i.e. MTT) assay. FIG. 7 upper panel illustrates the effect of HerDox on MDA-MB-231 (HER2−) and MDA-MB-435 (HER2+) cell survival. Relative surviving cell numbers are represented as a % of corresponding untreated cells. […] Relative survival (as % of untreated cells) is shown for Day 3 of treatment.
N=3. […] Bar, about 4 μm. […] (E) compares HerDox and Dox on off-target tissue. […] Green fluorescence in nuclei indicates apoptosis (positive TUNEL stain).
By three days, HerDox reduced HER2+ cell numbers by over 75% whereas HER2− cell survival was unaffected (FIG. 7). […] These findings emphasize the importance of targeting by showing that the untargeted drug affects nontarget (i.e. HER2−) cells. […] To test receptor targeting, the inventors used free heregulin ligand (Her or eHRG) as a competitive inhibitor. […] As a final in vitro challenge, the inventors tested whether HerDox induces toxicity specifically to HER2+ cells in a mixed culture of HER2+ and HER2− breast cancer cells. To do this, the inventors produced a HER2− cell line tagged with green fluorescent protein (GFP) for cell identification in the mixed culture (FIG. 9-A). […] Altogether, these findings indicate that HerDox has the capacity to preferentially target toxicity to HER2+ cells. […] In serum-containing media, no such loss from HerDox is detectable. […] Co-migration of HerPBK10 bands further verified that the conjugates remained intact in the cell media.

B1: HerDox: non-covalent complex of HerPBK10, double-stranded oligonucleotide and intercalated Dox (Unit A+Unit B+Unit C) (conjugate)
chain: SHLVKCAEKEKTFCVNGGECFMVKDLSNPSRYLCKCQPGFTGARCTENVPMKVQNQEKAEELYQKMRRAAMYEEGPPPSYESVVSAAPVAAALGSPFDAPLDPPFVPPRYLRPTGGRNSIRYSELAPLFDTTRVYLVDNKSTDVASLNYQNDHSNFLTTVIQNNDYSPGEASTQTINLDDRSHWGGDLKTILHTNMPNVNEFMFTNKFKARVMVSRLPTKDNQVELKYEWVEFTLPEGNYSETMTIDLMNNAIVEHYLKVGRQNGVLESDIGVKFDTRNFRLGFDPVTGLVMPGVYTNEAFHPDIILLPGCGVDFTHSRLSNLLGIRKRQPFQEGFRITYDDLEGGNIPALLDVDAYQASLKDDTEQGGGGAGGSNSSGSGAEENSNAAAAAMQPVEDMNDHAIRGDTFATRAEEKRAEAEAAAEAAAPAAQPEVEKPQKKPVIKPLTEDSKKRSYNLISNDSTFTQYRSWYLAYNYGDPQTGIRSWTLLCTPDVTCGSEQVYWSLPDMMQDPVTFRSTRQISNFPVVGAELLPVHSKSFYNDQAVYSQLIRQFTSLTHVFNRFPENQILARPPAPTITTVSENVPALTDHGTLPLRNSIGGVQRVTITDARRRTCPYVYKALGIVSPRVLSSRTFKKKKKKKKKK
modifications: left off: small tags and cut ends
[1]; 4° C.
  product remaining intact: 100%
[1]; room temperature and 37° C.
  effect of storage on drug incorporation: appeared to enhance the incorporation of the drug
[2]
  loss of Dox fluorescence from conjugate in culture media: no such loss
JIMT-1 tumors
  effect on JIMT-1 tumor growth: ablated tumor growth
U251 human glioma cells; 0.5 μM or 1 μM
  toxicity relative to the equivalent concentration of Dox: 8-10 times
U251 human glioma cells
  factor less HerDox eliciting the same toxicity as Dox: 10 ×
BT474 parental cells; 48-72 h after treatment
  cell death on parental BT474 (comparative): higher cell death compared to Tz and Tz+Pz; also recorded: modestly improved over trastuzumab; also recorded: modestly improved over Tz
BT474 parental cells; parental BT474, 4 h pre-treatment
  enhancement of HerDox toxicity by trastuzumab pre-treatment: 50%
BT474 parental cells; parental BT474, 24 h pre-treatment
  enhancement of HerDox toxicity by trastuzumab pre-treatment: ~75%
MDA-MB-231 (HER2−)
  effect on HER2− cell survival: unaffected
